Kd data for two molecules are collected here from PMC5493754, “Myosin 7 and its adaptors link cadherins to actin” (Nature Communications, 2017).

Holding throughout (settings): both partners purified
In experiment [1] the target is T1, YFP-Myosin 7a MF2 (human, UniProt Q13402-1 1702-2215).
T1 construct: Myosin 7a, human, MF2, residues 1702-2215 of UniProt Q13402-1; pET14-YFP vector; also called ^YFPM7a MF2; source: E. coli (BL21-AI, BL21 (DE3) Rosetta or BL21-Gold (DE3)), purified (Histrap, CaptoQ, gel filtration)
T1 sequence (looked up): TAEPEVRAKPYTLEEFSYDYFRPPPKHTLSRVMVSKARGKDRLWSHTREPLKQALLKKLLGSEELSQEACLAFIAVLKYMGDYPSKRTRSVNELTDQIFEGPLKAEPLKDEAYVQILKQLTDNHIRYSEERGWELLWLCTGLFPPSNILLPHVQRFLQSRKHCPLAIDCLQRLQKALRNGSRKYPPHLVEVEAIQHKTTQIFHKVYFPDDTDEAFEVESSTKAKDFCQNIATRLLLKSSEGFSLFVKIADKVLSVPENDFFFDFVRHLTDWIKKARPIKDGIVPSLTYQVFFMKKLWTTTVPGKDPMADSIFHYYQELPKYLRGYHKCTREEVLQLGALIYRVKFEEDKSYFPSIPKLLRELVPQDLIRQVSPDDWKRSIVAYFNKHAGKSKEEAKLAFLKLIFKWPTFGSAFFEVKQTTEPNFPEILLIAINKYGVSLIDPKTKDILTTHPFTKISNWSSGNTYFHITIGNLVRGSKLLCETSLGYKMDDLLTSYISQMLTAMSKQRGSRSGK
In words: MST; YFP-fused partner constant at 100 nM, non-fluorescent protein titrated (16 two-fold dilutions); 20 mM Hepes pH 7.0, 100 mM NaCl, 1 mM EGTA, 0.5 mM TCEP, 0.05% Tween 20; Monolith NT.115.

In experiment [2] the target is T2, YFP-SANS_(CEN-PBM) saturated with harmonin NPDZ1.PDZ2 ( | human, UniProt Q495M9 300-461; Q9Y6N9-1 1-301).
T2 construct: SANS (USH1G), residues 300-461 of UniProt Q495M9; as m40; Harmonin-a1 (USH1C), human, residues 1-301 of UniProt Q9Y6N9-1; as m30; also called ^YFPSANS_(CEN-PBM)+NPDZ1.PDZ2; source: purified E. coli proteins mixed (saturating NPDZ1.PDZ2); not shown: YFP, N-terminal, kept
T2 sequence (looked up) 1: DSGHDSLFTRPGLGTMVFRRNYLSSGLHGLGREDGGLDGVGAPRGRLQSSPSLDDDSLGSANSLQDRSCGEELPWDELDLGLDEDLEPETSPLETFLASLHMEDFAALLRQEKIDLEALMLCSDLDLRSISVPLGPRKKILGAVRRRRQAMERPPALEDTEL
T2 sequence (looked up) 2: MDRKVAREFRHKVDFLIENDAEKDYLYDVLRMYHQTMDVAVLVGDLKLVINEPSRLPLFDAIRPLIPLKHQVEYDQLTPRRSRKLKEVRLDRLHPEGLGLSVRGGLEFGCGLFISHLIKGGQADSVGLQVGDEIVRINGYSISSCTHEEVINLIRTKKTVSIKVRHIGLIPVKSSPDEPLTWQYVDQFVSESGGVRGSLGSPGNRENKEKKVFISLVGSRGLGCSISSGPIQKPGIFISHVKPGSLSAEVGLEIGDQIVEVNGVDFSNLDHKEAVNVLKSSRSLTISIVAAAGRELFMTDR
Put plainly: MST; YFP-fused partner held together with a third protein (saturating concentrations; competition experiments), non-fluorescent protein titrated.

For experiment [3], the target named is T3, Myosin 7b MF2 L2083W (human, UniProt Q6PIF6 1605-2116, L2083W).
T3 construct: Myosin 7b, human, MF2, residues 1605-2116 of UniProt Q6PIF6; also called M7b MF2 L2083W; source: E. coli, purified similarly as wild type (Histrap, CaptoQ, gel filtration)
T3 sequence (looked up): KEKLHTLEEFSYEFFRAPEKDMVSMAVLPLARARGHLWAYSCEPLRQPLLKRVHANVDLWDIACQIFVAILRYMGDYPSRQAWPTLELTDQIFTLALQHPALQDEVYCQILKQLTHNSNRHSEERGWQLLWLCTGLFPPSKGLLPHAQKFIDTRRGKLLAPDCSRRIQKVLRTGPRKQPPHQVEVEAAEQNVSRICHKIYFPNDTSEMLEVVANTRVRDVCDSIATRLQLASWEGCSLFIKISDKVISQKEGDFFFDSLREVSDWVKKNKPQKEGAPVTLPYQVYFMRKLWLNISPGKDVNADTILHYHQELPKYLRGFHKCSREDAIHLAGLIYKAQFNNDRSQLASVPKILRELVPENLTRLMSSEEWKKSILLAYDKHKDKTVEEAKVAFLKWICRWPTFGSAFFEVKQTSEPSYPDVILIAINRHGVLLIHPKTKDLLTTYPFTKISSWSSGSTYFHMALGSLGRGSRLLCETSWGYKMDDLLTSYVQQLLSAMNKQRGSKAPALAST
Put plainly: MST; YFP-fused partner constant at 100 nM, non-fluorescent protein titrated (16 two-fold dilutions); 20 mM Hepes pH 7.0, 100 mM NaCl, 1 mM EGTA, 0.5 mM TCEP, 0.05% Tween 20; Monolith NT.115.

Experiment [4] addresses T4, Myosin 7b MF2 (human, UniProt Q6PIF6 1605-2116).
T4 construct: also called M7b MF2; Myo7b MF2; source: E. coli (BL21-AI, BL21 (DE3) Rosetta or BL21-Gold (DE3)), purified (Histrap, CaptoQ, gel filtration)
T4 sequence (looked up): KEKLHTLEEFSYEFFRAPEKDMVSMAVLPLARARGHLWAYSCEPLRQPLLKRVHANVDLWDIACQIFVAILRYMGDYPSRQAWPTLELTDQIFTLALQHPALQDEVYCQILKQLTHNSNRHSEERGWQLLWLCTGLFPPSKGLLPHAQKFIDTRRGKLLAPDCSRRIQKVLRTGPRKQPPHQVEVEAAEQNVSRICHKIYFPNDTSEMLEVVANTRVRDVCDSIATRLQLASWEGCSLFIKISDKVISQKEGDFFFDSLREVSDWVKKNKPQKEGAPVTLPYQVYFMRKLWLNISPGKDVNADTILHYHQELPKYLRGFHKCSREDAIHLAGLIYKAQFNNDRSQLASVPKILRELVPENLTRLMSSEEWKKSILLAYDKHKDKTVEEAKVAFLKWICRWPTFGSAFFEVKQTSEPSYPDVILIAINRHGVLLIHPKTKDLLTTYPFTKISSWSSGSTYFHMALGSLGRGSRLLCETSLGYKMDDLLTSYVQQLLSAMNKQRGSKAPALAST
The experiment is described as above.

B1: Harmonin-a PDZ3c (non-fluorescent, as used in MST) (domain or fragment, human, UniProt Q9Y6N9-1 428-552, looked up)
chain: QDFRKYEEGFDPYSMFTPEQIMGKDVRLLRIKKEGSLDLALEGGVDSPIGKVVVSAVYERGAAERHGGIVKGDEIMAINGKIVTDYTLAEAEAALQKAWNQGGDWIDLVVAVCPPKEYDDELTFF
notes: Harmonin-a1 (USH1C), human, PDZ3 plus C-terminal peptide, residues 428-552 of UniProt Q9Y6N9-1; The methods say only that samples for ITC or crystallisation were digested with TEV protease; also called PDZ3c (isoA); source: E. coli BL21 (DE3) Rosetta, purified (Glutathione Sepharose 4B, size-exclusion chromatography)
One may read the Kd as the equilibrium constant for the complex coming apart. A high value points to a looser complex. For B1, the Kd in experiment [1] was 1400 ± 200 nM; in experiment [2], more than 100000 nM.

B2: YFP-Harmonin-a PDZ3c (domain or fragment, human, UniProt Q9Y6N9-1 428-552, looked up)
chain: QDFRKYEEGFDPYSMFTPEQIMGKDVRLLRIKKEGSLDLALEGGVDSPIGKVVVSAVYERGAAERHGGIVKGDEIMAINGKIVTDYTLAEAEAALQKAWNQGGDWIDLVVAVCPPKEYDDELTFF
notes: Harmonin-a1 (USH1C), human, residues 428-552 of UniProt Q9Y6N9-1; also called ^YFPPDZ3c (isoA); source: E. coli BL21 (DE3) Rosetta, purified (Glutathione Sepharose 4B, size-exclusion chromatography)
As to B2, the Kd in experiment [3] is more than 300000 nM; in experiment [4], 1900 ± 600 nM.
